Data published in ChEMBL document CHEMBL1154868 (J Nat Prod, 2010).

Experiments:
[1] = physchem; conditions: octanol/water
Description: Lipophilicity, log P of the compound

[2] = substrate: Cc1ncc(CO)c(CO)c1O; conditions: Homo sapiens
Description: (§1) Activity at human PKH kinase expressed in Escherichia coli by affinity chromatography

[3] = substrate: Cc1ncc(CO)c(C=O)c1O; conditions: Homo sapiens
Description: as §1

[4] = substrate: COCc1c(CO)cnc(C)c1O; conditions: Homo sapiens
Description: as §1

[5] = substrate: Cc1ncc(CO)c(CN)c1O; conditions: Homo sapiens
Description: as §1

Cc1ncc(CO)c(C=O)c1O [PYRIDOXAL]
logP [1]: -1.18

B1: Pyridoxal kinase (Homo sapiens), O00764 (protein)
chain: MEEECRVLSIQSHVIRGYVGNRAATFPLQVLGFEIDAVNSVQFSNHTGYAHWKGQVLNSDELQELYEGLRLNNMNKYDYVLTGYTRDKSFLAMVVDIVQELKQQNPRLVYVCDPVLGDKWDGEGSMYVPEDLLPVYKEKVVPLADIITPNQFEAELLSGRKIHSQEEALRVMDMLHSMGPDTVVITSSDLPSPQGSNYLIVLGSQRRRNPAGSVVMERIRMDIRKVDAVFVGTGDLFAAMLLAWTHKHPNNLKVACEKTVSTLHHVLQRTIQCAKAQAGEGVRPSPMQLELRMVQSKRDIEDPEIVVQATVL
Km [2]: 9.9 µM
Km [3]: 59 µM
Km [4]: 5 µM
Km [5]: 130 µM
